The text below walks through data of publication PMC6783537, “Structural basis of the activation of type 1 insulin-like growth factor receptor” (Nature Communications, 2019).

Broadly, the stoichiometry N is the number of molecules, sites or subunits per partner or assembly.

The data set deals with the molecule itself. Briefly: cryo-EM structure; purified MmIGF1R and HsIGF1 mixed at molar ratio 1:2, 1 h at 4 °C, complex purified by SEC in 20 mM Hepes-Na pH 7.4, 200 mM NaCl, 0.03% DDM; 4.3 Å. A general note: SEC sorts molecules by how far they enter the pores of the column.

B1: full-length mouse IGF1R (MmIGF1R), residues 1–1262, Y951A, D1107N (receptor)
chain: not shown
notes: Mouse type 1 insulin-like growth factor receptor with C-terminal tail truncation and kinase dead mutation, residues 1–1262, Y951A, D1107N; Disulfide-linked covalent dimer of two protomers; it is written here as one chain per protomer; also called type 1 insulin-like growth factor receptor; not shown: Tsi3, C-terminal, cleaved
As to B1, the “stoichiometry N” value came to 2.
